Reference: US12139531B2, “Compositions and methods useful in promoting milk production” (The Regents of the University of California, priority 2019, dated 2024)
Entries after “also recorded” stand apart in the source; their conditions may differ.

T1: ROBO2 (Homo sapiens, UniProt Q9HCK4)
T1 construct: expressed in transfected cells; host or cells: Cos7
T1 sequence (Q9HCK4 22-1378): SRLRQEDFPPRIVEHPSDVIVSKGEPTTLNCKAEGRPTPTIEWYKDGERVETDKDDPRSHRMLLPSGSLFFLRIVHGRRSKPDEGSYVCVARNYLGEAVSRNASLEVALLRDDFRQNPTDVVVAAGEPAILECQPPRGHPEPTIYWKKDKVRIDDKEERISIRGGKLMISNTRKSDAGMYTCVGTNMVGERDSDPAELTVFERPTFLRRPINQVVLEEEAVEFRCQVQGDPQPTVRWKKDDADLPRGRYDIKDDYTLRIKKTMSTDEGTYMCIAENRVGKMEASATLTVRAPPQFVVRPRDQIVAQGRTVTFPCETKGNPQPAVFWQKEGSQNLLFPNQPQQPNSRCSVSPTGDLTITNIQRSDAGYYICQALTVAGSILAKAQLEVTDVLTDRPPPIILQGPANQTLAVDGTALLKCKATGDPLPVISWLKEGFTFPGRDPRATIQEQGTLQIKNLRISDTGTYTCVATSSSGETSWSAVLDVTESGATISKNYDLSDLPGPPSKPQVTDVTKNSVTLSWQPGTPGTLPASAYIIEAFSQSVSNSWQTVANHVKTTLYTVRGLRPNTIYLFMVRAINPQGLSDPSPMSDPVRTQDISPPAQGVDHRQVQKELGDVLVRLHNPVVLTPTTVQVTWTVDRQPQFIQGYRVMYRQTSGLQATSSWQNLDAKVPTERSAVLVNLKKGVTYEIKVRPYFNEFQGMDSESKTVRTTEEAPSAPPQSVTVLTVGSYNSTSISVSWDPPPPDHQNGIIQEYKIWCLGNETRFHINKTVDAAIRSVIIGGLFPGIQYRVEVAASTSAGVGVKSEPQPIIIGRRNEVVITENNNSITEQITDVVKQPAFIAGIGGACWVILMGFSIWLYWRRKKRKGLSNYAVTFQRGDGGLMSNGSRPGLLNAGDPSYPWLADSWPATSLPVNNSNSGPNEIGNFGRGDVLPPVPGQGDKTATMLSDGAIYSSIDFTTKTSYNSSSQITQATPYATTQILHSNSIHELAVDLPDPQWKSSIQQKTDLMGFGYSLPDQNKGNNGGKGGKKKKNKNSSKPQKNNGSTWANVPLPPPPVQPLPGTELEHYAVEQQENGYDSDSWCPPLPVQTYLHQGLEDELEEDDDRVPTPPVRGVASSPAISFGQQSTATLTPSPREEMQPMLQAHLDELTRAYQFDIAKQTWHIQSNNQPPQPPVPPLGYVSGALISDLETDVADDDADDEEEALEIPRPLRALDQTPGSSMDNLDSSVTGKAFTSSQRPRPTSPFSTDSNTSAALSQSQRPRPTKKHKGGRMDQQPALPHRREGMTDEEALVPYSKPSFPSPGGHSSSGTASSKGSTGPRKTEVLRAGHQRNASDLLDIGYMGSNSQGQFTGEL

B1: ROBO1-Ecto-HA: ROBO1-Ecto fused to HA (hemagglutinin) tag (protein)
chain: SRLRQEDFPPRIVEHPSDLIVSKGEPATLNCKAEGRPTPTIEWYKGGERVETDKDDPRSHRMLLPSGSLFFLRIVHGRKSRPDEGVYICVARNYLGEAVSHNASLEVAILRDDFRQNPSDVMVAVGEPAVMECQPPRGHPEPTISWKKDGSPLDDKDERITIRGGKLMITYTRKSDAGKYVCVGTNMVGERESEVAELTVLERPSFVKRPSNLAVTVDDSAEFKCEARGDPVPTVRWRKDDGELPKSRYEIRDDHTLKIRKVTAGDMGSYTCVAENMVGKAEASATLTVQEPPHFVVKPRDQVVALGRTVTFQCEATGNPQPAIFWRREGSQNLLFSYQPPQSSSRFSVSQTGDLTVTNVQRSDVGYYICQTLNVAGSIITKAYLEVTDVIADRPPPVIRQGPVNQTVAVDGTLTLSCVATGSPVPTILWRKDGVLVSTQDSRIKQLESGVLQIRYAKLGDTGRYTCTASTPSGEATWSAYIEVQEFGVPVQPPRPTDPNLIPSAPSKPEVTDVSKNTVTLLWQPNLNSGATPTSYIIEAFSHASGSSWQTVAENVKTETFAIKGLKPNAIYLFLVRAANAYGISDPSQISDPVKTQDVPPTTQGVDHKQVQRELGNVVLHLHNPTILSSSSVEVHWTVDQQSQYIQGYKILYRPSGASHGESEWLVFEVRTPTKNSVVIPDLRKGVNYEIKARPFFNEFQGADSEIKFAKTLEEAPSAPPRSVTVSKNDGNGTAILVTWQPPPEDTQNGMVQEYKVWCLGNETRYHINKTVDGSTFSVVIPSLVPGIRYSVEVAASTGAGPGVKSEPQF
modifications: left off: small tags and cut ends
notes: ROBO1-Ecto fused to HA (hemagglutinin) tag
B2: DCC-Ig2: extracellular domain of Deleted in Colorectal Cancer comprising two Ig domains, HA tagged, negative control (protein, listed as Rattus norvegicus)
chain: FTSLHFVSEPSDAVTMRGGNVLLNCSAESDRGVPVIKWKKDGLILALGMDDRKQQLPNGSLLIQNILHSRHHKPDEGLYQCEASLGDSGSIISRTAKVMVAGPLRFLSQTESITAFMGDTVLLKCEVIGDPMPTIHWQKNQQDLNPIPGDSRVVVLPSGALQISRLQPGDSGVYRCSARNPASTRTGNEAEVRILSDPGL
modifications: HA tag
notes: extracellular domain of Deleted in Colorectal Cancer comprising two Ig domains, HA tagged, negative control
B3: ROBO1-Ecto: recombinant soluble ROBO1 construct comprising the entire extracellular domain (protein)
chain: B1 chain
modifications: left off: small tags and cut ends
notes: recombinant soluble ROBO1 construct comprising the entire extracellular domain

Assays:
ROBO2 = molecular target: T1, ROBO2; assay: ECD binding assay on Cos7 cells overexpressing Robo2; conditions: Cos7 cells overexpressing Robo2, sodium azide, 1H incubation, immunostaining
Method: Soluble ROBO1 ECD fragments ROBO1-Ig2 and ROBO1-Ig5 generated in the presence of heparin were used in a dome assay. […] Because treatment with heparin had only a modest positive effect on ROBO1 ECD production and a deleterious effect on their function (FIG. 6C, E), the use of heparin to generate soluble ROBO1 ECD fragments was not pursued. The ability of a ROBO1 ECD fragment to bind ROBO2 receptors was tested by overexpressing Robo2 in Cos7 cells, treating cells with sodium azide to prevent protein internalization and then incubating cells with ROBO1-Ecto-HA 1H prior to fixation and immunostaining.

DCC = molecular target: T2, DCC (Homo sapiens, UniProt P43146); assay: ECD binding assay on cells overexpressing DCC
T2 construct: expressed in transfected cells
Method: FIG. 6: ROBO1 extracellular domains. (A) Cartoon showing domain structure of the ROBO1 extracellular domain (ECD) panel (B) Western blot of ROBO1 ECDs and control DCC ECDs in lysates and conditioned media of HEK cells overexpressing plasmid constructs. (C) Dot blot assay of media (left) and quantification (right) of ROBO1-Ig5 secretion from HEK cells overexpressing Robo-Ig5 in the absence and presence of heparin (300 ng/ml). […] (F) ECD binding assay using ROBO1-Ecto and cells overexpressing ROBO2 (top, green) and cells overexpressing DCC (bottom, green). ROBO1-Ecto-HA (red) binds to ROBO2, but not to DCC.

HC11 cells [1] = assay: HC11 dome assay (milk dome formation on differentiation in DIP media); assay type: cell-based, mouse; conditions: HC11 cells, increasing ECD concentration
Method: To investigate ROBO1 function during alveologenesis, Robo1 gene expression was inhibited in HC11 cells (Robo1 KD). HC11 cells are a well-established, prolactin-responsive model of lactation,^19,20. Cells in which Robo1 gene expression was not inhibited are referred to as WT or Robo1+/+ herein. To measure milk production, cells were grown to confluence and then primed by treatment with epidermal growth factor (EGF, 10 ng/ml). The EGF is administered for three days in combination with charcoal-stripped fetal bovine serum, followed by one day of charcoal-stripped fetal bovine serum in the absence of EGF. These primed cells are then differentiated by treatment with dexamethasone (1 μg/ml), insulin (5 μg/ml) and prolactin (Prl, 5 μg/ml) media (DIP media) for between 3 and 5 days (FIG. 2A). Differentiation (Dif) results in the development of milk-filled domes (FIG. 2B). […] If the cells were left undifferentiated (Undif), there was little dome formation in either WT or Robo1−/− cells (FIG. 2B). Next, tissue from Robo1 knockout mice (Robo1−/−) and wild type mice (WT or Robo1+/+) mice was analyzed. Mammary glands were harvested from pregnant day 18 WT and Robo1−/− animals and alveologenesis analyzed by serially sectioning, carmine staining and then quantifying the area occupied by alveoli in sections located at top, middle and bottom portions of the tissue.
Dome number formation in response to a titration of ROBO1 ECD fragments was quantified. […] A bovine ROBO1-Ig5 construct was also tested in this assay and, as with the rat constructs, more domes were formed in response to treatment with higher concentrations of […] (FIG. 7H).
HC11 cells were grown in RPMI 1640 media (Gibco) supplemented with 10% fetal bovine serum (BioFluid Technologies), 5 μg/mL insulin (Sigma), and 10 ng/ml epidermal growth factor (EGF; Sigma). To induce differentiation in HC11 cells, confluent plates were given fresh media (RPMI 1640 media supplemented with 5% charcoal-stripped fetal bovine serum (BioFluid Technologies), 5 μg/mL insulin, and 10 ng/ml epidermal growth factor (EGF; Sigma) for 3 days followed by 24 hours of priming in priming medium (RPMI 1640 media supplemented with 5% charcoal-stripped fetal bovine serum (BioFluid Technologies), and 5 μg/mL insulin. After priming, DIP medium (RPMI 1640 media supplemented with 5% charcoal-stripped fetal bovine serum (BioFluid Technologies), 10^−6 M dexamethasone (Sigma), 5 μg/mL insulin, and 5 μg/mL prolactin (National Hormone and Peptide program) was added with fresh media every 24 hours.

HC11 cells [2] = assay: Western blot analysis of WAP and PLIN2 in HC11 cells; assay type: cell-based, mouse; conditions: ECD titration
Method: To determine whether the promotion of dome formation also results in higher milk production, HC11 cells were differentiated in the presence or absence of ROBO1-ECD fragments that were added to cells simultaneously with DIP media. Cells were harvested and the expression of WAP and Lalba assessed by RT-qPCR. […] WAP expression levels were not increased in cells treated with DCC-Ig4 (FIG. 7K). Next, Western blot analysis of WAP and PLIN2 was performed on cells treated with ROBO1-Ig5 and ROBO1-Ecto.
Protein lysates were prepared by directly lysing adherent cells in 1× sample buffer supplemented with 5% beta-mercaptoethanol and boiled for 5 minutes. Protein lysate was resolved by SDS-PAGE and transferred to a PVDF for 90 minutes at 400 mA or overnight at 30 mA. Primary antibodies were used at the concentration indicated in Table 1 and incubated overnight at 4° C. HRP conjugated secondary antibodies (Jackson Labs) were used at 1:3000 and incubated for 45 minutes at room temp. All proteins were detected using Clarity ECL (BioRad) using a BioRad Chemi-Doc MP Imager and quantified using ImageLab software as previously described a.

HC11 cells [3] = assay: Bodipy 493/503 neutral lipid staining of differentiated HC11 cells; assay type: cell-based, mouse; conditions: Bodipy493/503 staining
Method: To determine whether the ROBO1 ECD fragments influence NOTCH4 signaling, HC11 assays were performed to monitor dome formation using both phase contrast microscopy (FIG. 7A, B, top), and fluorescent microscopy using hydrophobic Bodipy493/503 that binds neutral lipids (FIG. 7A, B, bottom). Undifferentiated (Undif) cells are distinct with interconnecting processes visible in phase contrast and little/no Bodipy staining (FIG. 7A). Upon differentiation and prolactin treatment, small lipid droplets accumulate that appear as dark-rimmed circles in phase contrast (FIG. 7B, top) and as punctate green circles by Bodipy staining (FIG. 7B, bottom).
Place cells in a half-volume of buffer or media. Make a 2× solution (2 μg/ml=7.6 μM) of Invitrogen™ BODIPY™ 493/503 dye in 0.5 mL volume of the same pre-warmed buffer or media (no cells, no BSA or serum) and mix vigorously to mechanically emulsify this solution. Immediately add to the solution of cells, mix and incubate up to 30 min.

Notch signaling = assay: RT-qPCR of Notch effector expression (Hey1, Hes1) in HC11 cells; assay type: cell-based, mouse; conditions: HC11 cells treated with ROBO1-ECD fragments
Method: To examine the effects of ROBO1-ECD fragments on Notch signaling, HC11 cells were treated with ROBO1-ECD fragments and Notch effector expression assessed. […] In addition, HC11 cells were treated with ROBO-Ig5 during differentiation. These cells were then fractionated and a Western blot performed to detect HES1 and NOTCH4-ICD (FIG. 8B).
Total RNA was harvested from cells lysed in TRIzol reagent (Invitrogen) and phase separated according to manufacturer's protocol with an additional overnight RNA precipitation stem in ethanol (Macias et al., 2011). The RNA was further purified with TURBO DNase (Ambion) treatment. Total RNA quality was analyzed by agarose gel electrophoresis and quantified with an ND-1000 spectrophotometer (NanoDrop). cDNA libraries were prepared from 1 μg of total RNA using iScript cDNA synthesis kit (BioRad). Quantitative RT-PCR was performed in triplicates using light Cycler 480 SYBR Green I Master (Roche) and quantified using BioRad CFX'Connect Real-Time System and CFX Manager software (BioRad). Results were normalized to GAPDH.

T2 sequence (P43146 26-1447, species assumed): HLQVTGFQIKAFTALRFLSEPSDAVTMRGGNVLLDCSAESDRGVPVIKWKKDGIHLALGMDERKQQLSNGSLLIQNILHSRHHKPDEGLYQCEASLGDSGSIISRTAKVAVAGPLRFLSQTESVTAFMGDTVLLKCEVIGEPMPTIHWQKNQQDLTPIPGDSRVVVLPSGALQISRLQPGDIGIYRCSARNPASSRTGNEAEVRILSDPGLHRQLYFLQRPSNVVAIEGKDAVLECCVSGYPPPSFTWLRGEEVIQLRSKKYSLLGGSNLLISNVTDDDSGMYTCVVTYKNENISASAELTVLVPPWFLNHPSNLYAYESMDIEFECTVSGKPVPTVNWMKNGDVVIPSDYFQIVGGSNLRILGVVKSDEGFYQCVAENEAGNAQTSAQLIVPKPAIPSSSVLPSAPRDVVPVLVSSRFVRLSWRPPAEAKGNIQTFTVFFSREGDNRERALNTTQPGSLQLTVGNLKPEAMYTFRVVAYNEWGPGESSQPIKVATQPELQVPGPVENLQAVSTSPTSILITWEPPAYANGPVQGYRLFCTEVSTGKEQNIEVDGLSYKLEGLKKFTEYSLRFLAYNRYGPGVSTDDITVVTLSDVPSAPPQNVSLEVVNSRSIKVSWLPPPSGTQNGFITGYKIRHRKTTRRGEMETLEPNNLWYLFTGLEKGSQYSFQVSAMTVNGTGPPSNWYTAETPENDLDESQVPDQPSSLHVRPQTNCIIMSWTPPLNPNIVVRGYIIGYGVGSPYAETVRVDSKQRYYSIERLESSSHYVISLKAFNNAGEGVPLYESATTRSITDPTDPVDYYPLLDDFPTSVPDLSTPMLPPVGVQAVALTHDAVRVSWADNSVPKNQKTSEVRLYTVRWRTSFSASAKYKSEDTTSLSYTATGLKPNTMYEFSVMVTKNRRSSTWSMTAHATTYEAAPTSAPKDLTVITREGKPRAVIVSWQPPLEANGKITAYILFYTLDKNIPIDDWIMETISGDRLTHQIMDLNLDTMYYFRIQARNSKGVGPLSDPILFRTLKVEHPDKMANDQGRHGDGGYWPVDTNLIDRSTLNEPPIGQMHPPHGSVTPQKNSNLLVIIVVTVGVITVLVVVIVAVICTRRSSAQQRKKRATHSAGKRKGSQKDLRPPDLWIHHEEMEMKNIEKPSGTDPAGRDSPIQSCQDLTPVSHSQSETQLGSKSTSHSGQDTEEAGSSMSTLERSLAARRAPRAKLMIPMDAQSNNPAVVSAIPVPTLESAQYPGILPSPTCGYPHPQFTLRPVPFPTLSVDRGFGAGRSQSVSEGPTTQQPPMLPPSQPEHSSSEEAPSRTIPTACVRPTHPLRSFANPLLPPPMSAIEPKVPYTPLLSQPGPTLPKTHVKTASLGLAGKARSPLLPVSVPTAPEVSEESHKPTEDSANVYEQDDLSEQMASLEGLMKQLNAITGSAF

Molecule | binding to ROBO2 (ROBO2) | binding to DCC (DCC) | dome formation in response to a titration of ECD fragments (HC11 cells [1]) | PLIN2 protein expression (HC11 cells [2]) | WAP protein expression (HC11 cells [2]) | number of cells completely surrounded by lipid droplets (HC11 cells [3]) | Hes1 expression (Notch signaling) | Hey1 expression (Notch signaling)
B1 | binds | not to DCC |  |  |  |  |  | 
B2 | does not bind |  | not observed |  |  |  |  | 
B3 |  |  | higher rates of dome formation | approximately two-fold; also recorded: increased | approximately two-fold; also recorded: increased | higher number of cells completely surrounded by lipid droplets | lower expression; also recorded: decreased | lower expression; also recorded: decreased
